From PMC6248175

Biological target: C3b (UniProt P01024)
Assay: microplate/western blot assay; protocol 1, formation step: C3b-coated wells; FB 1,000 ng/ml, FD 10 ng/ml, 10 mM MgCl2, 100 ug/ml control or patients' IgGs, 12 min at 25 C, without or with FH 2,640 ng/ml during formation; density of the Bb band with FH over that without FH

ratio Bb band + FH / Bb band without FH (with FH-CSA+ C3NeF IgGs of patients): 0.58
ratio Bb band + FH / Bb band without FH (with FH-CSA- C3NeF IgGs of patients): 0.32
ratio Bb band + FH / Bb band without FH (with control IgGs): 0.32
Substance: factor H (from UniProt P08603 19-1231) (natural protein)
